In the supplement of paper PMC10724198:

test system: Saccharomyces cerevisiae; assay: protein stability index of tFT-peptide fusion in wild type (PSI (0-1 scale)); higher = more stable (slower turnover); conditions: genetic background: wild type
Protocol: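 MPS profiling in S. cerevisiae of two library types built from selected 12-aa C-degron peptides (IN1, IN2, LN1, LN3, VN2, R1-R5, W1-W3, Atg1 and Rpa12 C-termini): saturation mutagenesis libraries and C-terminal +1 capping libraries (13 aa). Each peptide is fused to the C-terminus of a sfGFP-mCherry timer, after a GGGS linker. Cells are FACS-sorted into 8 mCherry/sfGFP bins and sequenced. PSI runs from 0 (unstable) to 1 (stable), measured once in wild type and in the das1Δ or doa10Δ background.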
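Further: PSI derived as read-weighted mean over the 8 sorting bins, only variants exceeding 10 total reads kept, mCherry placed adjacent to the peptide and sfGFP distal.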

Question: Which protein stability index does the source give for KKHHKGQKQKIN here?
Answer: 0.0513

Question: How did the protein stability index turn out when KKHKKFQKQKIN was run?
Answer: 0.0762

Question: How did the protein stability index turn out when KKHKKGGKQKIN was run?
Answer: 0.169

Question: KKHKKGKKQKIN was tested. Which protein stability index did it give?
Answer: 0.0795

Question: Which protein stability index does the source give for KKHKKGQGQKIN here?
Answer: 0.42

Question: KKHKKGQKHKIN was tested. Which protein stability index did it give?
Answer: 0.228

Question: With KKHKKGQKQCIN as the sequence, how does the protein stability index read?
Answer: 0.26

Question: With KKHKKGQKQKCN as the sequence, how does the protein stability index read?
Answer: 0.312

Question: KKHKKGQKQKIC was tested. Which protein stability index did it give?
Answer: 0.0636

Question: For KKHKKGQKQKID, which protein stability index is on record?
Answer: 0.547

Question: For KKHKKGQKQKINS, which protein stability index is on record?
Answer: 0.126

Question: For KKHKKGQKQKPN, which protein stability index is on record?
Answer: 0.617

Question: KKHKKGQKQLIN was tested. Which protein stability index did it give?
Answer: 0.335

Question: For KKHKKGQKQTIN, which protein stability index is on record?
Answer: 0.362

Question: For KKHKKGQKWKIN, which protein stability index is on record?
Answer: 0.102

Question: How did the protein stability index turn out when KKHKKGQSQKIN was run?
Answer: 0.204

Question: How did the protein stability index turn out when KKHKKGTKQKIN was run?
Answer: 0.0759

Question: KKHKKGWKQKIN was tested. Which protein stability index did it give?
Answer: 0.0739

Question: Which protein stability index does the source give for KKHKKGYKQKIN here?
Answer: 0.113

Question: How did the protein stability index turn out when KKHKKPQKQKIN was run?
Answer: 0.0387

Question: Which protein stability index does the source give for KKHKMGQKQKIN here?
Answer: 0.0496

Question: With KKKKKGQKQKIN as the sequence, how does the protein stability index read?
Answer: 0.164

Question: How did the protein stability index turn out when KKMKKGQKQKIN was run?
Answer: 0.0965

Question: How did the protein stability index turn out when KMHKKGQKQKIN was run?
Answer: 0.1

Question: With LHILRQKMNHQN as the sequence, how does the protein stability index read?
Answer: 0.105

Question: Which protein stability index does the source give for LKILIQKMNHQN here?
Answer: 0.217

Question: With LKILRGKMNHQN as the sequence, how does the protein stability index read?
Answer: 0.297

Question: For LKILRQKMCHQN, which protein stability index is on record?
Answer: 0.217

Question: How did the protein stability index turn out when LKILRQKMGHQN was run?
Answer: 0.541

Question: How did the protein stability index turn out when LKILRQKMNGQN was run?
Answer: 0.353

Question: For LKILRQKMNHPN, which protein stability index is on record?
Answer: 0.672

Question: Which protein stability index does the source give for LKILRQKMNHQI here?
Answer: 0.179

Question: Which protein stability index does the source give for LKILRQKMNHQL here?
Answer: 0.172

Question: For LKILRQKMNHQNG, which protein stability index is on record?
Answer: 0.657

Question: LKILRQKMNHQNI was tested. Which protein stability index did it give?
Answer: 0.65

Question: LKILRQKMNHQNM was tested. Which protein stability index did it give?
Answer: 0.601

Question: Which protein stability index does the source give for LKILRQKMNHQNW here?
Answer: 0.659

Question: For LKILRQKMNHQP, which protein stability index is on record?
Answer: 0.373

Question: Which protein stability index does the source give for LKILRQKMNNQN here?
Answer: 0.267

Question: For LKILRQKMTHQN, which protein stability index is on record?
Answer: 0.273

Question: With LKILRQKQNHQN as the sequence, how does the protein stability index read?
Answer: 0.302

Question: LKILRQKWNHQN was tested. Which protein stability index did it give?
Answer: 0.194

Question: Which protein stability index does the source give for LKILRQKYNHQN here?
Answer: 0.189

Question: For LKILRQQMNHQN, which protein stability index is on record?
Answer: 0.206

Question: Which protein stability index does the source give for LKINRQKMNHQN here?
Answer: 0.209

Question: With LKIRRQKMNHQN as the sequence, how does the protein stability index read?
Answer: 0.246

Question: For LKITRQKMNHQN, which protein stability index is on record?
Answer: 0.229

Question: Which protein stability index does the source give for LVILRQKMNHQN here?
Answer: 0.135

Question: How did the protein stability index turn out when LVVSLSCVACIN was run?
Answer: 0.0181

Question: How did the protein stability index turn out when LVVYASCVACIN was run?
Answer: 0.023

Question: How did the protein stability index turn out when LVVYFSCVACIN was run?
Answer: 0.0194

Question: Which protein stability index does the source give for LVVYLHCVACIN here?
Answer: 0.0158

Question: With LVVYLRCVACIN as the sequence, how does the protein stability index read?
Answer: 0.0199

Question: For LVVYLSCCACIN, which protein stability index is on record?
Answer: 0.0859

Question: For LVVYLSCIACIN, which protein stability index is on record?
Answer: 0.0141

Question: Which protein stability index does the source give for LVVYLSCLACIN here?
Answer: 0.0182

Question: How did the protein stability index turn out when LVVYLSCVACIND was run?
Answer: 0.0204

Question: How did the protein stability index turn out when LVVYLSCVACING was run?
Answer: 0.0204

Question: Which protein stability index does the source give for LVVYLSCVACINN here?
Answer: 0.0233

Question: Which protein stability index does the source give for LVVYLSCVACIR here?
Answer: 0.0163

Question: How did the protein stability index turn out when LVVYLSCVACIY was run?
Answer: 0.0122

Question: Which protein stability index does the source give for LVVYLSCVARIN here?
Answer: 0.0258

Question: For LVVYLSCVATIN, which protein stability index is on record?
Answer: 0.0174

Question: With LVVYLSCVAVIN as the sequence, how does the protein stability index read?
Answer: 0.0169

Question: With LVVYLSCVCCIN as the sequence, how does the protein stability index read?
Answer: 0.461

Question: LVVYLSCVVCIN was tested. Which protein stability index did it give?
Answer: 0.0309

Question: How did the protein stability index turn out when LVVYLSKVACIN was run?
Answer: 0.0955

Question: How did the protein stability index turn out when LVVYLSTVACIN was run?
Answer: 0.0656

Question: Which protein stability index does the source give for LVVYLSWVACIN here?
Answer: 0.0137

Question: With LVVYPSCVACIN as the sequence, how does the protein stability index read?
Answer: 0.248

Question: LVVYVSCVACIN was tested. Which protein stability index did it give?
Answer: 0.0192

Question: For LVVYWSCVACIN, which protein stability index is on record?
Answer: 0.0151

Question: For NLIQPLPVQFLN, which protein stability index is on record?
Answer: 0.0875

Question: Which protein stability index does the source give for NRWRVGLWRGAS here?
Answer: 0.454

Question: PDHRNHLIKLLN was tested. Which protein stability index did it give?
Answer: 0.0948

Question: Which protein stability index does the source give for PDKANHLIKLLN here?
Answer: 0.183

Question: How did the protein stability index turn out when PDKGNHLIKLLN was run?
Answer: 0.23

Question: Which protein stability index does the source give for PDKINHLIKLLN here?
Answer: 0.135

Question: With PDKRDHLIKLLN as the sequence, how does the protein stability index read?
Answer: 0.105

Question: For PDKRMHLIKLLN, which protein stability index is on record?
Answer: 0.0774

Question: PDKRNALIKLLN was tested. Which protein stability index did it give?
Answer: 0.142

Question: With PDKRNDLIKLLN as the sequence, how does the protein stability index read?
Answer: 0.184

Question: How did the protein stability index turn out when PDKRNHLAKLLN was run?
Answer: 0.0907

Question: PDKRNHLGKLLN was tested. Which protein stability index did it give?
Answer: 0.428

Question: How did the protein stability index turn out when PDKRNHLIKGLN was run?
Answer: 0.546

Question: With PDKRNHLIKLGN as the sequence, how does the protein stability index read?
Answer: 0.617

Question: For PDKRNHLIKLLA, which protein stability index is on record?
Answer: 0.114

Question: With PDKRNHLIKLLC as the sequence, how does the protein stability index read?
Answer: 0.0722

Question: For PDKRNHLIKLLF, which protein stability index is on record?
Answer: 0.269

Question: Which protein stability index does the source give for PDKRNHLIKLLNQ here?
Answer: 0.316

Question: PDKRNHLIKLLNR was tested. Which protein stability index did it give?
Answer: 0.652

Question: With PDKRNHLIKLLNV as the sequence, how does the protein stability index read?
Answer: 0.203

Question: For PDKRNHLIKLLS, which protein stability index is on record?
Answer: 0.102

Question: For PDKRNHLTKLLN, which protein stability index is on record?
Answer: 0.17

Question: For PDKRNHSIKLLN, which protein stability index is on record?
Answer: 0.174

Question: Which protein stability index does the source give for PDKRNHTIKLLN here?
Answer: 0.176

Question: How did the protein stability index turn out when PDKRNLLIKLLN was run?
Answer: 0.124

Question: PDKRNNLIKLLN was tested. Which protein stability index did it give?
Answer: 0.155

Question: With PDKRNSLIKLLN as the sequence, how does the protein stability index read?
Answer: 0.163

Question: PDKRNTLIKLLN was tested. Which protein stability index did it give?
Answer: 0.108

Question: How did the protein stability index turn out when PDKVNHLIKLLN was run?
Answer: 0.129

Question: For PLKRNHLIKLLN, which protein stability index is on record?
Answer: 0.135

Question: For PPLAASFWRVVG, which protein stability index is on record?
Answer: 0.165

Question: How did the protein stability index turn out when PQKRNHLIKLLN was run?
Answer: 0.113

Question: For PSCAASFWRVVG, which protein stability index is on record?
Answer: 0.154

Question: PSEAASFWRVVG was tested. Which protein stability index did it give?
Answer: 0.175

Question: Which protein stability index does the source give for PSLAANFWRVVG here?
Answer: 0.159

Question: For PSLAASAWRVVG, which protein stability index is on record?
Answer: 0.155

Question: Which protein stability index does the source give for PSLAASFWEVVG here?
Answer: 0.697

Question: PSLAASFWRCVG was tested. Which protein stability index did it give?
Answer: 0.144

Question: Which protein stability index does the source give for PSLAASFWRVSG here?
Answer: 0.205

Question: PSLAASFWRVVGE was tested. Which protein stability index did it give?
Answer: 0.672

Question: PSLAASFWRVVGG was tested. Which protein stability index did it give?
Answer: 0.651

Question: How did the protein stability index turn out when PSLAASFWRVVGM was run?
Answer: 0.679

Question: Which protein stability index does the source give for PSLAASFWRVYG here?
Answer: 0.174

Question: For PSLAASHWRVVG, which protein stability index is on record?
Answer: 0.158

Question: PSLAASNWRVVG was tested. Which protein stability index did it give?
Answer: 0.22
